How the values were obtained:
Human TGFβ1 [1] = target: T1, Human TGFβ1 (human, UniProt P01137 279-390); test: SPR (Biacore T200), TGFβ1 amine-coupled to CM5 chip, Fab injected
T1 construct: also called Transforming Growth Factor-β1

Human TGFβ1 [2] = target: T1, Human TGFβ1
Human TGFβ1 [3] = target: T1, Human TGFβ1; test: Octet QK384, Fab from conditioned medium captured on anti-Fab-CH1 biosensors, 200 nM TGFβ1; qualitative
Description: Conditioned media (CM) was harvested 4 days post-transfection and the Octet QK384 instrument was used to calculate expression level and TGFβ1 binding in a single assay. […] Binding to anti-Fab-CH1 biosensors was measured for 2 min at 1000 rpm and 30° C. plate temperature for quantitation and capture. The sensors were then moved into wells containing 200 nM of TGFβ1 for binding assessment.

T1 sequence (P01137 279-390 limits assumed): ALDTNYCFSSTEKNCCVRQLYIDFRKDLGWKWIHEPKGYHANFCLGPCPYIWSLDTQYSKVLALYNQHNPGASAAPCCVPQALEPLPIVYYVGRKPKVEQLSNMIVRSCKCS

GC1008 Fab
Kd (Human TGFβ1 [1]): 2.9 nM | koff (Human TGFβ1 [1]): 0.00208 s⁻¹ | kon (Human TGFβ1 [1]): 711000 M⁻¹ s⁻¹

GC1008 control (antibody)
IC50 (read off the curve) (Human TGFβ1 [2]): 1 ng/mL

B1: CAT192 A25S Fab (Fab, V domains shown)
VH: EVQLVESGGGVVQPGRSLRLSCAASGFTFSSYGMHWVRQAPGKELEWVAVISYDGSIKYYADSVKGRFTISRDNSKNTLYLQMNSLRAEDTAVYYCARTGEYSGYDTDPQYSWGQGTTVTVSS
VL: EIVLTQSPSSLSASVGDRVTITCRSSQGIGDDLGWYQQKPGKAPILLIYGTSTLQSGVPSRFSGSGSGTDFTLTINSLQPEDFATYYCLQDSNYPLTFGGGTRLEIKR
notes: Control light chain mutant in the Fv; His-tagged HC Fab, HC limits see recheck; also called A25S mutant
binding result (Human TGFβ1 [3]): binds
